“And” between values parts separate entries of the source, which are not always exact repeats. Equal entries are not always repeated. Each block holds one molecule with its values, some of them ahead of it.
B5: S. cerevisiae Csm1 full-length (natural protein, UniProt P25651 1-190, looked up)
chain: MDPLTVYKNSVKQQIDSADLLVANLVNENFVLSEKLDTKATEIKQLQKQIDSLNAQVKELKTQTSQQAENSEVIKDLYEYLCNVRVHKSYEDDSGLWFDISQGTHSGGSSDDYSIMDYKLGFVKGQAQVTEVIYAPVLKQRSTEELYSLQSKLPEYLFETLSFPLSSLNQFYNKIAKSLNKKREKKDETE
B9: Mtw1 (subunit of the purified MIND complex) (natural protein, S. cerevisiae, UniProt P39731 1-289, looked up)
chain: MSAPTMRSTSILTEHLGYPPISLVDDIINAVNEIMYKCTAAMEKYLLSKSKIGEEDYGEEIKSGVAKLESLLENSVDKNFDKLELYVLRNVLRIPEEYLDANVFRLENQKDLVIVDENELKKSEEKLREKVNDVELAFKKNEMLLKRVTKVKRLLFTIRGFKQKLNELLKCKDDVQLQKILESLKPIDDTMTLLTDSLRKLYVDSESTSSTEEVEALLQRLKTNGKQNNKDFRTRYIDIRTNNVLRKLGLLGDKEDEKQSAKPDARTQAGDIVSIDIEEPQLDLLDDVL
B10: Csm1 1-181 (domain or fragment, S. cerevisiae, UniProt P25651 1-181, looked up)
chain: MDPLTVYKNSVKQQIDSADLLVANLVNENFVLSEKLDTKATEIKQLQKQIDSLNAQVKELKTQTSQQAENSEVIKDLYEYLCNVRVHKSYEDDSGLWFDISQGTHSGGSSDDYSIMDYKLGFVKGQAQVTEVIYAPVLKQRSTEELYSLQSKLPEYLFETLSFPLSSLNQFYNKIAKSLNK

How the values were obtained:
Pcs1 85-222 (S. pombe) = Pcs1 85-222 (S. pombe) (UniProt O13684); experiment: AUC
[1] = target: S. pombe Pcs1 full-length (S. pombe) (UniProt O13684); experiment: AUC
S. pombe Pcs1 full-length (S. pombe), sequence (O13684 whole entry): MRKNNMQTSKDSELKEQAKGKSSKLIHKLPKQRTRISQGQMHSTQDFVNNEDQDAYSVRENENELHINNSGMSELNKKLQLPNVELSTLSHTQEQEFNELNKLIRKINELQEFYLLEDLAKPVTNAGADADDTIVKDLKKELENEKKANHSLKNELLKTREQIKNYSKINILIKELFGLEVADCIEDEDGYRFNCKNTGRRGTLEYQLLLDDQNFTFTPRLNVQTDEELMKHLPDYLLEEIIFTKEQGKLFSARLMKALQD

Csm1 1-181 = target: B10; experiment: AUC
[2] = target: S. pombe Pcs1 full-length (S. pombe) (UniProt O13684); experiment: AUC; remark: listed apart in the source
[3] = target: B9; experiment: co-purification of a recombinant complex
[4] = target: B5; experiment: AUC
AUC = target: the molecule itself; experiment: AUC
[5] = target: T1, Dsn1 (subunit of the purified MIND complex) (S. cerevisiae, UniProt P40568 1-576); experiment: co-purification of a recombinant complex
T1 sequence (looked up): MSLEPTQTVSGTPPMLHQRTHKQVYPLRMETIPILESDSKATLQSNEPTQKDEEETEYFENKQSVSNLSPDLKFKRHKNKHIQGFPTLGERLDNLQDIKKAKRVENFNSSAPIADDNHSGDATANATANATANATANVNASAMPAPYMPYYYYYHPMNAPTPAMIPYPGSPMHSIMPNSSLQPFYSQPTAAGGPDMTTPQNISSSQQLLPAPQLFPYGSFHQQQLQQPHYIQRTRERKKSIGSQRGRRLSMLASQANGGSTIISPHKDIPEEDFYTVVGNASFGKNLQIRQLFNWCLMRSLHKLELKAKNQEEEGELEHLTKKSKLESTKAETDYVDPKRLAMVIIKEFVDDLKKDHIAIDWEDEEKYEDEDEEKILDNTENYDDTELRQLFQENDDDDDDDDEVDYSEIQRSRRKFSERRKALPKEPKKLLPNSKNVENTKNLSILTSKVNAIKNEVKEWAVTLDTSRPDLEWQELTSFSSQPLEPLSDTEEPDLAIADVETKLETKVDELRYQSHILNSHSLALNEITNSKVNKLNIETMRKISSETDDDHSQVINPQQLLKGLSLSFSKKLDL

stoichiometry N (Pcs1 85-222 (S. pombe)): 2
Molecule: Pcs1 85-222 (from UniProt O13684 85-222) (domain or fragment)

stoichiometry N [1]: 2
Molecule: S. pombe Pcs1 full-length (from UniProt O13684 1-261) (natural protein)

B1: peptide containing Lrs4 residues 2-30 (peptide, UniProt Q04087 2-30, looked up)
peptide: TTLLQLLSNYYKAKLDSERIYNEYVQSQY
stoichiometry N (Csm1 1-181): 4 copies of Csm1 in the complex and 2 copies of Lrs4 in the complex

stoichiometry N (copies of Mde4 in the complex) [2]: 2
stoichiometry N (copies of Pcs1 in the complex) [2]: 4
B2: Mde4 1-77 (domain or fragment)
chain: MSTISTSTDSKLDNLGLSVTSRRNQILFYLSKALNLAHLLRSDSLQKSFLDALKQSATDSELLHKNLDEIKFLQNEK

binding result [3]: binds
B3: Nnf1 (subunit of the purified MIND complex) (natural protein, S. cerevisiae, UniProt P47149 1-201, looked up)
chain: MVNSHGIRYIRLKQVFNRALDQSISKLQSWDKVSSCFPQYVNSKQGAINVANCQRQLTEFWTELCQREFKEIMEERNVEQKLNELDELILEAKERYTDRDQDEVNKGPAIDELSSKELVECHLYSQRMHAIHEIDERLAKVNEMNDQLAQELKDLETQVEVEKNEIGKMYDEYLGSHTDQPANVLLVQSLNDMVLELKENY

B4: Lrs4 full-length (natural protein, S. cerevisiae, UniProt Q04087 1-347, looked up)
chain: MTTLLQLLSNYYKAKLDSERIYNEYVQSQYEFASLDKLNNNKGDPKKVVDETLFLQRQIAQLNKQLQLSFQENEKLLSVQKNQKALYQSKLSSKDAFIDDLKLKLKVEQISVDKHNKERTPSTGRDEQQRNSKAAHTSKPTIHLLSPIVNRDKPNNQTNDRGGNDPDSPTSQRRSRGLRSLLSSGKNTIFDSISKNLDDEINENAHIRNDTTSSKIAGKSPSRLSALQKSPELRKERNNMILKEHILRSKDDQNITSSRKLDNIELSSIGDSTAMTSRSSTVNANDILGNEENDGITKLKRVNKLTSSPVKRDCSTNKKRKLTKQRIATLPNSDEELSNNLNVDEFV
stoichiometry N [4]: 4 copies of Csm1 in the complex and 2 copies of Lrs4 in the complex

Molecule: B5
stoichiometry N (AUC): 2

stoichiometry N (copies of Mde4 in the complex) [2]: 2
stoichiometry N (copies of Pcs1 in the complex) [2]: 4
B6: Mde4 1-231 (domain or fragment)
chain: MSTISTSTDSKLDNLGLSVTSRRNQILFYLSKALNLAHLLRSDSLQKSFLDALKQSATDSELLHKNLDEIKFLQNEKLNNEKLLEQEQNEANDYRLKVERLEHKISDYVQEINSLNSQLQIQKSNPEKHEDAVSQNRLRGSLDTVSSPSKTHKANKDEKATRLHLIIANLKKALKEKDAEVLNLQSHVSSKESELDRFKIKLETEESNWKVRLQVLESKLATQDRKLRMQK

B7: Lrs4 1-130 (domain or fragment, S. cerevisiae, UniProt Q04087 1-130, looked up)
chain: MTTLLQLLSNYYKAKLDSERIYNEYVQSQYEFASLDKLNNNKGDPKKVVDETLFLQRQIAQLNKQLQLSFQENEKLLSVQKNQKALYQSKLSSKDAFIDDLKLKLKVEQISVDKHNKERTPSTGRDEQQR
stoichiometry N [4]: 4 copies of Csm1 in the complex and 2 copies of Lrs4 in the complex

stoichiometry N (copies of Mde4 in the complex) [2]: 2
stoichiometry N (copies of Pcs1 in the complex) [2]: 4
B8: Mde4 full-length (natural protein)
chain: MSTISTSTDSKLDNLGLSVTSRRNQILFYLSKALNLAHLLRSDSLQKSFLDALKQSATDSELLHKNLDEIKFLQNEKLNNEKLLEQEQNEANDYRLKVERLEHKISDYVQEINSLNSQLQIQKSNPEKHEDAVSQNRLRGSLDTVSSPSKTHKANKDEKATRLHLIIANLKKALKEKDAEVLNLQSHVSSKESELDRFKIKLETEESNWKVRLQVLESKLATQDRKLRMQKKSTERKSLLVSPRVSSPKLFSPSKQAIMGTRQPNATSGSPLSVTPFLQKTSTSIGLSSSPPQSSPSAQSSQPFSRDKYPHSMTVSPSNARYLKKHLDDTIPSNVSDINHNDHLKIPQSPSSLSPSKIPIRKKRKLKDTVSNCEFTEEDSESSFLLETIQPTKSTLRRSISPLKKRNDEINELKKGFTMKK

Molecule: B9
binding result [5]: binds

Molecule: B10
stoichiometry N (AUC): 2

stoichiometry N (copies of Mde4 in the complex) [2]: 2
stoichiometry N (copies of Pcs1 in the complex) [2]: 4
B11: Mde4 1-125 (domain or fragment)
chain: MSTISTSTDSKLDNLGLSVTSRRNQILFYLSKALNLAHLLRSDSLQKSFLDALKQSATDSELLHKNLDEIKFLQNEKLNNEKLLEQEQNEANDYRLKVERLEHKISDYVQEINSLNSQLQIQKSN

B12: Csm1 69-190 (domain or fragment, S. cerevisiae, UniProt P25651 69-190, looked up)
chain: ENSEVIKDLYEYLCNVRVHKSYEDDSGLWFDISQGTHSGGSSDDYSIMDYKLGFVKGQAQVTEVIYAPVLKQRSTEELYSLQSKLPEYLFETLSFPLSSLNQFYNKIAKSLNKKREKKDETE
stoichiometry N (AUC): 2

B13: Lrs4 1-102 (domain or fragment, S. cerevisiae, UniProt Q04087 1-102, looked up)
chain: MTTLLQLLSNYYKAKLDSERIYNEYVQSQYEFASLDKLNNNKGDPKKVVDETLFLQRQIAQLNKQLQLSFQENEKLLSVQKNQKALYQSKLSSKDAFIDDLK
stoichiometry N [4]: 4 copies of Csm1 in the complex and 2 copies of Lrs4 in the complex
